Measurements from US20150196533A1, “METHOD FOR CONCURRENT TREATMENT OF PAIN AND DEPRESSION” (The General Hospital Corporation, priority 2012, published 2015).
Entries after “also recorded” stand apart in the source; their conditions may differ.

Key:
[1] = test system: IDO1 expression in Neuro2a cells; test: IL-6 exposure of cultured Neuro2a cells: IDO1 expression and activity; format: cell-based; conditions: 0.5 ng/ml for 24 hours
Description: Neuro2a cells were cultured in minimal essential (EAGLE) medium (Invitrogen) supplemented with 10% fetal bovine serum, 100 U/ml penicillin, and 100 μg/ml streptomycin (Invitrogen) in a humidified atmosphere of 5% CO2 and 95% air at 37° C. Cells were treated with 0.5 ng/ml IL-6 or vehicle and collected 24 hours later for assays (74).
Rats were anesthetized with pentobarbital (50 mg/kg, i.p.) and perfused transcardially with cold 0.9% saline (pH 7.4±0.1) followed by cold 4% paraformaldehyde in a phosphate buffer (PB, 0.1M, pH 7.4±0.1). Brains were removed and placed in the same fixative for post-fixation at 4° C. for 6 hours. For cryoprotection, the samples were kept with cold 30% sucrose in phosphate buffer saline (PBS) at 4° C. until samples sank to the bottom. Coronal brain sections (30 μm) were cut using a cryostat and then floated in PBS. Sections were blocked with 5% normal donkey serum in 0.3% Triton X-100/PBS for 1 hour at room temperature. Free floating sections were incubated overnight at 4° C. on a rocker with one of the following primary antibodies: 1:100, IDO1 rabbit polyclonal (Santa Cruz Biotechnology Inc.); 1:1,000, NeuN mouse monoclonal (Chemicon); 1:1,000, GFAP mouse monoclonal (BD Bioscience Pharmingen); 1:1,000, Iba-1 mouse monoclonal (Abcam). Sections were then washed with PBS three times and incubated with 1:300 FITC- or cyanine3-conjugated secondary antibody (JacksonlnununoResearch Laboratories Inc) for 1 hour at room temperature. Blue fluorescent DAPI (1:300; Invitrogen) was used to stain the nucleus of fixed cultured Neuro2a cells for 15 minutes.
(§1) Rats were sacrificed under pentobarbital anesthesia. The hippocampus was separated from the brain and immediately stored on dry ice and kept at −80° C. until use. Samples were homogenized in a lysis buffer with SDS containing a cocktail of proteinase inhibitors (Roche). Samples were separated on an SDS-PAGE gel (4%-15% gradient gel; Bio-Rad) and transferred to polyvinylidene difluoride filter (PVDF) membranes (Millipore). Membranes were blocked with 5% nonfat dried milk for 1 hour at room temperature and incubated over night at 4° C. on a rocker with one of following primary antibody: 1:200 IDO1 (Santa Cruz Biotechnology Inc.; rabbit polyclonal antibody), 1:200 IDO1 (Novius Biologicals; rabbit polyclonal antibody), 1:500 JAK2 (Santa Cruz Biotechnology Inc.; rabbit polyclonal antibody), 1:1,000 STAT3 (Millipore; rabbit polyclonal antibody), 1:5,000 p-STAT3 (Abcam; rabbit monoclonal antibody). After membranes were washed with PBS×4, membranes were incubated with 1:8,000 HRP conjugated secondary antibody (Amersham, Biosciences) for 1 hour at room temperature on a rocker. The membranes were washed with PBS×4 and blots were visualized in enhanced Chemiluminescent (ECL) solution (Pierce) for 5 minutes and exposed to hyperfilms (Kodak) for 15 minutes. Blots were again incubated in a Stripping buffer (Pierce) for 15 minutes at room temperature on a rocker and reprobed with 1:12,000 anti-β-actin antibody (Abeam Inc.) as a loading control. Western blots were made in triplicates. Band density was measured and normalized against a loading control band.
Total RNA was isolated from hippocampal samples using TRIzol reagent (Invitrogen). Four μg of total RNA was used to synthesize the first strand cDNA using SuperScript III kit (Invitrogen). Four μl of cDNA was put into 20 μl vessel with 1 μl of 20× TaqMan Gene Expression Assay. Taqman Gene Expression Assays (Applied Biosystems) containing primers and a Taqman probe were used to quantify each gene of interest. The genes examined were IL-6 (Rn01410330 m1, M26744.1) and IDO1 (Rn00576778 m1, AF312699.1) for rats and IL-6 (Mm00446190 m1, X54542.1) and IDO1 (Mm00492586 m1, M69109.1) for mice. The reaction was performed in duplicate with the following conditions: denaturing at 95° C. for 30 s, annealing at 60° C. for 2 min, extension at 68° C. for 2 min for 40 cycles using a 7300 Real-Time PCR System (Applied Biosystems). […]

[2] = test system: IDO1 expression in hippocampal organotypic slice culture; test: IL-6 exposure of organotypic hippocampal slice culture: IDO1 expression and activity; format: cell-based, rat; conditions: 100 ng/ml for 24 hours
From the text: According to a modified method (Stoppini, L., Buchs, P. A., and Muller, D. 1991. A simple method for organotypic cultures of nervous tissue. J Neurosci. Methods 37:173-182.; Fu, X., Zunich, S. M., O'Connor, J. C., Kavelaars, A., Dantzer, R., and Kelley, K. W. 2010. Central administration of lipopolysaccharide induces depressive-like behavior in vivo and activates brain indoleamine 2,3 dioxygenase in murine organotypic hippocampal slice cultures. J Neuroinflammation. 7:43) organotypic hippocampal cultures were prepared using hippocampus slices from 5 to 8-day-old Wistar rats. Rat pups were euthanized by decapitation and brains were rapidly removed and the hippocampus was separated from the brain. Hippocampal slices (350 μm in thickness) were made using a Mcllwain tissue chopper (Campden Instruments Ltd) and placed in the Gey's balanced salt solution (Sigma-Aldrich) with 2 mg/ml D-glucose. Slices were then placed on 30-mm Millicell-CM (Millipore) porous (0.4 μm) membranes. These membranes were transferred into six-well culture plates filled with an incubation medium (1 ml) consisting of 50% vol/vol minimal essential medium, 25% heat-inactivated horse serum and 25% HBSS (Invitrogen), supplemented with 25 mM D-glucose. Plates were incubated in a humidified atmosphere of 5% CO2 and 95% air at 37° C. Culture medium was changed 3 times a week. Slices were treated with 100 ng/ml IL-6 or vehicle and collected 24 hours later for assays (Hakkoum, D., Stoppini, L., and Muller, D. 2007. Interleukin-6 promotes sprouting and functional recovery in lesioned organotypic hippocampal slice cultures. J Neurochem. 100:747-757).
as §1
Total RNA was isolated from hippocampal samples using TRIzol reagent (Invitrogen). […] Taqman Gene Expression Assays (Applied Biosystems) containing primers and a Taqman probe were used to quantify each gene of interest. […]

B1: IL-6: exogenous IL-6 (recombinant rat IL-6), proinflammatory cytokine (protein, UniProt P20607 25-211, looked up)
Interleukin-6: FPTSQVRRGDFTEDTTHNRPVYTTSQVGGLITYVLREILEMRKELCNGNSDCMNSDDALSENNLKLPEIQRNDGCFQTGYNQEICLLKICSGLLEFRFYLEFVKNNLQDNKKDKARVIQSNTETLVHIFKQEIKDSYKIVLPTPTSNALLMEKLESQKEWLRTKTIQLILKALEEFLKVTMRSTRQT
- IDO1 immunoreactivity (FIG. 8A) [1]: increased
- IDO activity [KYN/TRP ratio and 5-HT/TRP ratio] [1]: increased
- kynurenine/tryptophan ratio (HPLC; FIG. 8D) ([1]; P<0.05): increased kynurenine/tryptophan ratio
- serotonin/tryptophan ratio (HPLC; FIG. 8E) ([1]; P<0.05): decreased serotonin/tryptophan ratio
- IDO1 mRNA expression (real-time PCR; FIG. 8B) ([1]; P<0.05 vs vehicle): significantly increased
- IDO1 protein expression (Western blot; FIG. 8C) ([1]; P<0.05 vs vehicle): significantly increased
- IDO1 immunoreactivity (FIG. 8F) [2]: increased IDO1 immunoreactivity; also recorded: increased the expression of IDO1
- IDO1 mRNA expression (real-time PCR; FIG. 8G) ([2]; P<0.05): up-regulated; also recorded: increased the expression of IDO1
- IDO1 protein expression (Western blot; FIG. 8H) ([2]; P<0.05): up-regulated; also recorded: increased the expression of IDO1
- kynurenine/tryptophan ratio in the culture medium (HPLC; FIG. 8I) ([2]; P<0.05): significantly increased; also recorded: increased KYN/TRP ratio
- serotonin/tryptophan ratio in the culture medium (HPLC; FIG. 8I) ([2]; P<0.05): decreased 5-HT/TRP ratio
